Reference: WO2005058967A2 (dated 2005)

Key:
[1] = target: insulin/IGF-I hybrid receptor isoform A (Hybrid-RsA) (UniProt P08069); assay: displacement of 125I-IGF1 from immunocaptured Hybrid-RsA
[2] = target: T1, extracellular domain of human insulin-like growth factor-1 receptor (hIGF-IR) (human, UniProt P08069 31-935); assay: ELISA on coated soluble IGF-IR, cos7 supernatants
T1 construct: extracellular domain; also called hIGF1-R; Human Insulin-Like Growth Factor I soluble Receptor (R & D Systems #391-GR)

[3] = target: T1, extracellular domain of human …; assay: SPR (BIAcore X), antibody captured by anti-Fc on a CM5 chip, hIGF-IR extracellular domain as analyte at 12.5-200 nM, 25°C

| binding result [2] | Molecule | further results |
| --- | --- | --- |
| – | monoclonal antibody 1H7 | IC50 [1]: < 50 nM |
| binds | humanized 7C10 VL 2 combined with humanized 7C10 VH 2 (antibody, human IgG1, V domains shown, Human IgG1/kappa, cos7 supernatant; also called 7C10 hum 2 heavy chain with humanized 7C10 VL 2) VH: QVQLQESGPGLVKPSETLSLTCTVSGYSITGGYLWNWIRQPPGKGLEWIGYISYDGTNNYKPSLKDRVTISRDTSKNQFSLKLSSVTAADTAVYYCARYGRVFFDYWGQGTLVTVSS VL: DIVMTQSPLSLPVTPGEPASISCRSSQSIVHSNGNTYLQWYLQKPGQSPQLLIYKVSNRLYGVPDRFSGSGSGTDFTLKISRVEAEDVGVYYCFQGSHVPWTFGQGTKVEIK | – |
| – | A2CHM Mab (antibody, V domains shown) VH: QVQLQESGPGLVKPSETLSLTCTVSGYSISGGYLWNWIRQPPGKGLEWIGYISYDGTNNYKPSLKDRVTISVDTSKNQFSLKLSSVTAADTAVYYCARYGRVFFDYWGQGTLVTVSS VL: DIVMTQSPLSLPVTPGEPASISCRSSQSIVHSNGNTYLQWYLQKPGQSPQLLIYKVSNRLYGVPDRFSGSGSGTDFTLKISRVEAEDVGVYYCFQGSHVPWTFGQGTKVEIK | Kd [3]: 0.86 nM |
| binds | humanized 7C10 VL 2 combined with humanized 7C10 VH 3 (antibody, human IgG1, V domains shown, Human IgG1/kappa, cos7 supernatant; also called 7C10 hum 3 heavy chain with humanized 7C10 VL 2) VH: QVQLQESGPGLVKPSETLSLTCTVSGYSISGGYLWNWIRQPPGKGLEWIGYISYDGTNNYKPSLKDRVTISVDTSKNQFSLKLSSVTAADTAVYYCARYGRVFFDYWGQGTLVTVSS VL: DIVMTQSPLSLPVTPGEPASISCRSSQSIVHSNGNTYLQWYLQKPGQSPQLLIYKVSNRLYGVPDRFSGSGSGTDFTLKISRVEAEDVGVYYCFQGSHVPWTFGQGTKVEIK | – |
